Measured values taken from paper PMC2925294.
Read-outs that look alike come from different tables or passages of the source.

What was measured:
Test in all cases: cryo-EM structure
[1] = target: epsilon15 bacteriophage tail hub (epsilon15 bacteriophage)
[2] = target: epsilon15 bacteriophage tail-spike (gp20) (epsilon15 bacteriophage)
[3] = target: epsilon15 bacteriophage capsid stapling protein gp10 (epsilon15 bacteriophage)
[4] = target: epsilon15 bacteriophage capsid stapling protein gp10 (epsilon15 bacteriophage); remark: listed apart in the source

“epsilon15 bacteriophage tail hub (natural protein)” showed a stoichiometry N [1] of 6.

For “epsilon15 bacteriophage tail-spike (gp20) (natural protein)”, the stoichiometry N [2] was 3.

With “epsilon15 bacteriophage capsid stapling protein gp10 (natural protein)” the stoichiometry N [3] was 2 and the stoichiometry N [4] was 2.
